According to paper PMC3162126:

What was measured:
AidB [1] = target: T1, AidB (Escherichia coli, UniProt P33224 1-541); assay: competition
T1 sequence: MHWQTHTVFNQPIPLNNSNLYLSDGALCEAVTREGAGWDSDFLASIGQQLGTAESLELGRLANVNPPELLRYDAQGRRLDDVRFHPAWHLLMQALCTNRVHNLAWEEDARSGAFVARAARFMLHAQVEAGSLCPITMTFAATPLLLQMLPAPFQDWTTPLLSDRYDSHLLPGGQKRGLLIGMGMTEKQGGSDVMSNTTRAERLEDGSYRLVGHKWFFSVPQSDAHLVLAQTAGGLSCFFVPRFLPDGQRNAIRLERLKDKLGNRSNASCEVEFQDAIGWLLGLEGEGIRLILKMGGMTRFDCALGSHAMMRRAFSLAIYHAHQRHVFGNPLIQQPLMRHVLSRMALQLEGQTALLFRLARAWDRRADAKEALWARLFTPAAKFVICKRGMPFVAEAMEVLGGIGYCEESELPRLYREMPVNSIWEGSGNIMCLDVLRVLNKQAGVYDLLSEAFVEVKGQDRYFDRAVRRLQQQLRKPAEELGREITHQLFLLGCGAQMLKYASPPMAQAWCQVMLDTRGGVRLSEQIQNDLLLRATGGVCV

AidB [2] = target: T1, AidB; assay: EMSA
AidB [3] = target: T1, AidB; assay: competition; remark: listed apart in the source

B1: rrnB P1ΔUP (-UP), unlabelled competitor (dsDNA)
DNA 1: CCTCTTGTCAGGCCGGAATAACTCCCTATAAT
DNA 2: ATTATAGGGAGTTATTCCGGCCTGACAAGAGG
- binding result (AidB [1]): no binding

B2: rrnB P1wt (+UP), biotinylated probe (dsDNA)
DNA 1: AGAAAATTATTTTAAATTTCCTCTTGTCAGGCCGGAATAACTCCCTATAAT
DNA 2: ATTATAGGGAGTTATTCCGGCCTGACAAGAGGAAATTTAAAATAATTTTCT
- binding result (AidB [2]): binds

B3: rrnB P1wt (+UP), unlabelled competitor (dsDNA)
DNA 1: AGAAAATTATTTTAAATTTCCTCTTGTCAGGCCGGAATAACTCCCTATAAT
DNA 2: ATTATAGGGAGTTATTCCGGCCTGACAAGAGGAAATTTAAAATAATTTTCT
- binding result (AidB [3]): binds
